For this assay, the target named is taxol-stabilised pig-brain MTs (pig) (UniProt P02550). The assay is described as follows: co-sedimentation.

As for “CENP-Q (from UniProt Q7L2Z9 1-268) (natural protein)”, the Kd was found to be 0.7 µM and the stoichiometry N is 6 CENP-Q:MT.

Broadly, the Kd is a measure of binding affinity in units of concentration. A lower Kd goes with higher affinity. What is called stoichiometry N is the number of molecules, sites or subunits per partner or assembly.

For the origin of these results see publication PMC2909587.
